Test results as given in patent publication US20050079613A1 (OREGON HEALTH AND SCIENCE UNIVERSITY, published 2005).

Molecular target: the molecule itself
Test: anti-Flag immunoprecipitation from metabolically labeled HeLa cells, SDS-PAGE and anti-Flag western blot
Protocol: HeLa cells were grown to 80% confluency in 100 mm tissue culture dishes and transfected as above. At 24 hours post-infection, cells were incubated in serum-free and methionine-free medium for 30 minutes, and metabolically labeled with ³⁵S-cysteine/³⁵S-methionine (300 μCi/plate, Amersham) for 2 hr. After labeling, cells were washed twice with PBS and lysed immediately in PBS containing 1% Digitonin and protease inhibitors (Roche, Indianapolis, Ind.). The cell lysate was precleared with protein A/G agarose beads overnight and incubated with 3 μg of antibody for one hour, followed by one hour with protein A/G beads. Immunoprecipated proteins were washed five times with 0.25% Digitonin in PBS. All samples were boiled in Laemmli buffer and analyzed by SDS-PAGE gel electrophoresis. Gels were fixed, dried and exposed to Kodak BioMax MR film. Western blotting was accomplished using the WesternBreeze Chemiluminescent Detection System (Invitrogen), following semi-dry transfer to PVDF membranes (Millipore, Bedford, Mass.).

B1: MARCH-I (enzyme, not shown: small tags and cut ends)
chain: MTSSHVCCNFLNMWKKSKISTMYYLNQDAKLSNLFLQASSPTTGTAPRSQSRLSVCPSTQDICRICHCEGDEESPLITPCRCTGTLRFVHQSCLHQWIKSSDTRCCELCKYDFIMETKLKPLRKWEKLQMTTSERRKIFCSVTFHVIAITCVVWSLYVLIDRTAEEIKQGNDNGVLEWPFWTKLVVVAIGFTGGLVFMYVQCKVYVQLWRRLKAYNRVIFVQNCPDTAKKLEKNFSCNVNTDIKDAVVVPVPQTGANSLPSAEGGPPEVVSV
notes: Whole open reading frame expressed by transfection in HeLa cells; Flag-tagged in the immunoprecipitation; also called MARCHI-Flag; FLJ20668
binding result: binds
